The results in this text go back to patent US20030054535A1, “Endoglucanase mutants and mutant hydrolytic depolymerizing enzymes and uses thereof” (priority 1999, published 2003).

Broadly, the Km is the substrate concentration at which the rate is half of its maximum. Broadly, the Vmax is the rate approached at saturating substrate.

Substrate in series [1]: OC[C@H]1O[C@@H](O[C@H]2[C@H](O)[C@@H](O)[C@H](O[C@H]3[C@H](O)[C@@H](O)C(O)O[C@@H]3CO)O[C@@H]2CO)[C@H](O)[C@@H](O)[C@@H]1O
In words: purified protein, by the assay type. As to conditions: other: cellotriose, 5 mM acetate pH 5.0, 50 degrees C, 50.0 °C.

Substrate in series [2]: OC[C@H]1O[C@@H](O[C@H]2[C@H](O)[C@@H](O)[C@H](O[C@H]3[C@H](O)[C@@H](O)C(O)O[C@@H]3CO)O[C@@H]2CO)[C@H](O)[C@@H](O)[C@@H]1O
In words: purified protein, by the assay type. As to conditions: other: cellotriose, 5 mM acetate pH 5.0, 50 degrees C, 50.0 °C. In kind it is biochemical, Acidothermus cellulolyticus.

B1: Acidothermus cellulolyticus EI endoglucanase (Cel5A) catalytic domain, native (wild type), SEQ ID NO:3 of U.S. Pat. No. 5,536,655 (Acidothermus cellulolyticus … (protein)
chain: AGGGYWHTSGREILDANNVPVRIAGINWFGFETCNYVVHGLWSRDYRSMLDQIKSLGYNTIRLPYSDDILKPGTMPNSINFYQMNQDLQGLTSLQVMDKIVAYAGQIGLRIILDRHRPDCSGQSALWYTSSVSEATWISDLQALAQRYKGNPTVVGFDLHNEPHDPACWGCGDPSIDWRLAAERAGNAVLSVNPNLLIFVEGVQSYNGDSYWWGGNLQGAGQYPVVLNVPNRLVYSAHDYATSVYPQTWFSDPTFPNNMPGIWNKNWGYLFNQNIAPVWLGEFGTTLQSTTDQTWLKTLVQYLRPTAQYGADSFQWTFWSWNPDSGDTGGILKDDWQTVDTVKDGYLAPIKSSIFDPVG
In the case of B1, in series [1], the Km was determined as 0.35 mM and the maximum rate (Vmax) is 0.86 µM/min.

B2: Acidothermus cellulolyticus EI endoglucanase (Cel5A) catalytic domain variant W42R, SEQ ID NO:1 (Acidothermus cellulolyticus 11B; W83R) (protein)
chain: AGGGYWHTSGREILDANNVPVRIAGINWFGFETCNYVVHGLRSRDYRSMLDQIKSLGYNTIRLPYSDDILKPGTMPNSINFYQMNQDLQGLTSLQVMDKIVAYAGQIGLRIILDRHRPDCSGQSALWYTSSVSEATWISDLQALAQRYKGNPTVVGFDLHNEPHDPACWGCGDPSIDWRLAAERAGNAVLSVNPNLLIFVEGVQSYNGDSYWWGGNLQGAGQYPVVLNVPNRLVYSAHDYATSVYPQTWFSDPTFPNNMPGIWNKNWGYLFNQNIAPVWLGEFGTTLQSTTDQTWLKTLVQYLRPTAQYGADSFQWTFWSWNPDSGDTGGILKDDWQTVDTVKDGYLAPIKSSIFDPV
notes: the protein was genetically truncated near the beginning of the linker peptide; made in house; host or cells: E. coli XL1-blue
Take B2: in series [2], the Km is 0.61 mM and the Vmax was 0.99 µM/min.

B3: Acidothermus cellulolyticus EI endoglucanase (Cel5A) catalytic domain variant Y82R, SEQ ID NO:2 (Acidothermus cellulolyticus 11B; Y123R) (protein)
chain: AGGGYWHTSGREILDANNVPVRIAGINWFGFETCNYVVHGLWSRDYRSMLDQIKSLGYNTIRLPYSDDILKPGTMPNSINFRQMNQDLQGLTSLQVMDKIVAYAGQIGLRIILDRHRPDCSGQSALWYTSSVSEATWISDLQALAQRYKGNPTVVGFDLHNEPHDPACWGCGDPSIDWRLAAERAGNAVLSVNPNLLIFVEGVQSYNGDSYWWGGNLQGAGQYPVVLNVPNRLVYSAHDYATSVYPQTWFSDPTFPNNMPGIWNKNWGYLFNQNIAPVWLGEFGTTLQSTTDQTWLKTLVQYLRPTAQYGADSFQWTFWSWNPDSGDTGGILKDDWQTVDTVKDGYLAPIKSSIFDPV
notes: as for B2
B3: in series [2], the Michaelis constant (Km) amounted to 0.69 mM and the Vmax turned out to be 1.5 µM/min.

B4: Acidothermus cellulolyticus EI endoglucanase (Cel5A) catalytic domain variant Y245G, SEQ ID NO:3 (Acidothermus cellulolyticus 11B; Y286G) (protein)
chain: AGGGYWHTSGREILDANNVPVRIAGINWFGFETCNYVVHGLWSRDYRSMLDQIKSLGYNTIRLPYSDDILKPGTMPNSINFYQMNQDLQGLTSLQVMDKIVAYAGQIGLRIILDRHRPDCSGQSALWYTSSVSEATWISDLQALAQRYKGNPTVVGFDLHNEPHDPACWGCGDPSIDWRLAAERAGNAVLSVNPNLLIFVEGVQSYNGDSYWWGGNLQGAGQYPVVLNVPNRLVYSAHDYATSVGPQTWFSDPTFPNNMPGIWNKNWGYLFNQNIAPVWLGEFGTTLQSTTDQTWLKTLVQYLRPTAQYGADSFQWTFWSWNPDSGDTGGILKDDWQTVDTVKDGYLAPIKSSIFDPV
notes: the mutant and wild type Cel5A catalytic domains were purified using the purification methods described above; made in house; host or cells: E. coli XL1-blue
Consider B4, for which, in series [2], the Michaelis constant (Km) is listed as 0.48 mM and the maximum rate (Vmax) was determined as 0.85 µM/min.
